In publication doi:10.1101/2022.11.08.515567 one finds stoichiometry N and percent dissociated to dimer after a freeze-thaw cycle data, which are given here for four substances.

What all share (experiment): SEC
(In general: Size exclusion chromatography separates by hydrodynamic size, large species first.)

For test [1], the target named is S2P.OmiBA1-FHA (SARS CoV-2 (Omicron BA.1) | bacteriophage T4).
The target of test [2] is S2P-1208.H8 (ancestral Hu-1) (SARS CoV-2 (ancestral Hu-1 isolate)) (UniProt P0DTC2).
The target of test [3] is S2P.OmiBA1-1208.H8 (SARS CoV-2 (Omicron BA.1)).
Test [4] has as its target S2P.OmiBA.4/5-1208.H8 (SARS CoV-2 (Omicron BA.4/5)).

With S2P.OmiBA1-FHA (domain or fragment), the stoichiometry N – broadly, the number of molecules, sites or subunits per partner or assembly – in test [1] was 3. For “S2P-1208.H8 (ancestral Hu-1) (from UniProt P0DTC2 16-1208) (domain or fragment)”, in test [2], the stoichiometry N turned out to be 2. As to S2P.OmiBA1-1208.H8 (domain or fragment), in test [3], the percent dissociated to dimer after a freeze-thaw cycle was found to be 15% and the stoichiometry N is 3.

On to “S2P.OmiBA.4/5-1208.H8 (domain or fragment)”, for which the stoichiometry N in test [4] was determined as 3.
